In the Human Domainome abundance scans (Beltran et al. 2025):
± gives the uncertainty stated by the source.

B1: Activity-dependent neuroprotector homeobox protein, residues 770 to 810; numbered along this chain, Q9H2P0 (parent)
chain: FLTKYFNKQPYPTRREIEKLAASLWLWKSDIASHFSNKRKK

Variants of: B1
Experiment: abundance fitness (aPCA) (normalised: wild type 0, dead -1); higher = more abundant; growth selection in yeast, the domain comes from the species named
Settings: Homo sapiens

**Q.** Which abundance fitness does the source give for FLTKYFNKQPYPTRREIEKLAASLWLWKSDIRSHFSNKRKK [A32R] here?
**A.** 0.029 ± 0.064

**Q.** For FLTKYFNKQPYPTRREIEKLAASLWLWKSDICSHFSNKRKK [A32C], which abundance fitness is on record?
**A.** 0.074 ± 0.14

**Q.** For FLTKYFNKQPYPTRREIEKLAASLWLWKSDITSHFSNKRKK [A32T], which abundance fitness is on record?
**A.** -0.086 ± 0.083

**Q.** Which abundance fitness does the source give for FLTKYFNKQPYPTRREIEKLAASLWLWKSDIQSHFSNKRKK [A32Q] here?
**A.** -0.169 ± 0.17

**Q.** Which abundance fitness does the source give for FLTKYFNKQPYPTRREIEKLAASLWLWKSDISSHFSNKRKK [A32S] here?
**A.** -0.196 ± 0.45

**Q.** With FLTKYFNKQPYPTRREIEKLAASLWLWKSDTASHFSNKRKK [I31T] as the variant, how does the abundance fitness read?
**A.** -0.061 ± 0.062

**Q.** With FLTKYFNKQPYPTRREIEKLAASLWLWKSDVASHFSNKRKK [I31V] as the variant, how does the abundance fitness read?
**A.** 0.16 ± 0.056

**Q.** Which abundance fitness does the source give for FLTKYFNKQPYPTRREIEKLAASLWLWKSDYASHFSNKRKK [I31Y] here?
**A.** -0.189 ± 0.064

**Q.** With FLTKYFNKQPYPTRREIEKLAASLWLWKSDWASHFSNKRKK [I31W] as the variant, how does the abundance fitness read?
**A.** -0.129 ± 0.086

**Q.** Which abundance fitness does the source give for FLTKYFNKQPYPTRREIEKLAASLWLWKSDSASHFSNKRKK [I31S] here?
**A.** -0.154 ± 0.05

**Q.** With FLTKYFNKQPYPTRREIEKLAASLWLWKSDIASHASNKRKK [F35A] as the variant, how does the abundance fitness read?
**A.** -0.119 ± 0.044

**Q.** For FLTKYFNKQPYPTRREIEKLAASLWLWKSDIASHESNKRKK [F35E], which abundance fitness is on record?
**A.** -0.068 ± 0.066

**Q.** With FLTKYFNKQPYPTRREIEKLAASLWLWKSDIASHCSNKRKK [F35C] as the variant, how does the abundance fitness read?
**A.** -0.347 ± 0.06

**Q.** Which abundance fitness does the source give for FLTKYFNKQPYPTRREIEKLAASLWLWKSDIASHISNKRKK [F35I] here?
**A.** -0.208 ± 0.096

**Q.** Which abundance fitness does the source give for FLTKYFNKQPYPTRREIEKLAASLWLWKSDIASHDSNKRKK [F35D] here?
**A.** -0.157 ± 0.072

**Q.** Which abundance fitness does the source give for FLTKYFNKQPYPTRREIEKLAASLWLWKSDIASHTSNKRKK [F35T] here?
**A.** -0.229 ± 0.05

**Q.** With FLTKYFNKQPYPTRREIEKLAASLWLWKSDIASHYSNKRKK [F35Y] as the variant, how does the abundance fitness read?
**A.** -0.235 ± 0.065

**Q.** For FLTKYFNKQPYPTRREIEKLAASLWLWKSDIASHNSNKRKK [F35N], which abundance fitness is on record?
**A.** -0.205 ± 0.067

**Q.** With FLTKYFNKQPYPTRREIEKLAASLWLWKSDIASHPSNKRKK [F35P] as the variant, how does the abundance fitness read?
**A.** -0.231 ± 0.053

**Q.** With FLTKYFNKQPYPTRREIEKLAASLWLWKSDIASHSSNKRKK [F35S] as the variant, how does the abundance fitness read?
**A.** -0.156 ± 0.049

**Q.** With FLTKYFNKQPYPTRREIEKLAASLWLWKSDIASHKSNKRKK [F35K] as the variant, how does the abundance fitness read?
**A.** -0.211 ± 0.08

**Q.** Which abundance fitness does the source give for FLTKYFNKQPYPTRREIEKLAASLWLWKSDIASHVSNKRKK [F35V] here?
**A.** -0.063 ± 0.047

**Q.** For FLTKYFNKQPYPTRREIEKLAASLWLWKSDIASHQSNKRKK [F35Q], which abundance fitness is on record?
**A.** -0.238 ± 0.057

**Q.** For FLTKYFNKQPYPTRREIEKLAASLWLWKSDIASHLSNKRKK [F35L], which abundance fitness is on record?
**A.** -0.023 ± 0.044

**Q.** With FLTKYFNKQPYPTRREIEKLAASLWLWKSDIASHGSNKRKK [F35G] as the variant, how does the abundance fitness read?
**A.** -0.112 ± 0.05

**Q.** With FLTKYFNKQPYPTRREIEKLAASLWLWKSDIASHHSNKRKK [F35H] as the variant, how does the abundance fitness read?
**A.** -0.237 ± 0.052

**Q.** Which abundance fitness does the source give for FLTKYFNKQPYPTRREIEKLAASLWLWKSDIASHMSNKRKK [F35M] here?
**A.** 0.004 ± 0.061

**Q.** With FLTKYFNKQPYPTRREIEKLAASLWLWKSDIASHFHNKRKK [S36H] as the variant, how does the abundance fitness read?
**A.** 0.01 ± 0.093

**Q.** With FLTKYFNKQPYPTRREIEKLAASLWLWKSDIASHFWNKRKK [S36W] as the variant, how does the abundance fitness read?
**A.** -0.177 ± 0.14

**Q.** Which abundance fitness does the source give for FLTKYFNKQPYPTRREIEKLAASLWLWKSDIASHFPNKRKK [S36P] here?
**A.** -0.047 ± 0.059

**Q.** For FLTKYFNKQPYPTRREIEKLAASLWLWKSDIASHFDNKRKK [S36D], which abundance fitness is on record?
**A.** -0.159 ± 0.077

**Q.** For FLTKYFNKQPYPTRREIEKLAASLWLWKSDIASHFVNKRKK [S36V], which abundance fitness is on record?
**A.** -0.262 ± 0.072

**Q.** Which abundance fitness does the source give for FLTKYFNKQPYPTRREIEKLAASLWLWKSDIASHFENKRKK [S36E] here?
**A.** -0.395 ± 0.18

**Q.** With FLTKYFNKQPYPTRREIEKLAASLWLWKSDIASHFKNKRKK [S36K] as the variant, how does the abundance fitness read?
**A.** 0.051 ± 0.08

**Q.** With FLTKYFNKQPYPTRREIEKLAASLWLWKSDIASHFFNKRKK [S36F] as the variant, how does the abundance fitness read?
**A.** -0.055 ± 0.095

**Q.** For FLTKYFNKQPYPTRREIEKLAASLWLWKSDIASHFCNKRKK [S36C], which abundance fitness is on record?
**A.** -0.006 ± 0.064

**Q.** Which abundance fitness does the source give for FLTKYFNKQPYPTRREIEKLAASLWLWKSDIASHFGNKRKK [S36G] here?
**A.** 0.083 ± 0.055

**Q.** Which abundance fitness does the source give for FLTKYFNKQPYPTRREIEKLAASLWLWKSDIASHFRNKRKK [S36R] here?
**A.** 0.087 ± 0.064

**Q.** Which abundance fitness does the source give for FLTKYFNKQPYPTRREIEKLAASLWLWKSDIASHFYNKRKK [S36Y] here?
**A.** -0.37 ± 0.11

**Q.** Which abundance fitness does the source give for FLTKYFNKQPYPTRREIEKLAASLWLWKSDIASHFTNKRKK [S36T] here?
**A.** 0.059 ± 0.067

**Q.** With FLTKYFNKQPYPTRREIEKLAASLWLWKSDIASHFMNKRKK [S36M] as the variant, how does the abundance fitness read?
**A.** -0.037 ± 0.088

**Q.** For FLTKYFNKQPYPTRREIEKLAASLWLWKSDIASHFINKRKK [S36I], which abundance fitness is on record?
**A.** -0.091 ± 0.082

**Q.** With FLTKYFNKQPYPTRREIEKLAASLWLWKSDIASHFQNKRKK [S36Q] as the variant, how does the abundance fitness read?
**A.** -0.085 ± 0.13

**Q.** For FLTKYFNKQPYPTRREIEKLAASLWLWKSDIASHFANKRKK [S36A], which abundance fitness is on record?
**A.** -0.049 ± 0.057

**Q.** With FLTKYFNKQPYPTRREIEKLAASLWLWKSDIASHFLNKRKK [S36L] as the variant, how does the abundance fitness read?
**A.** -0.316 ± 0.09

**Q.** Which abundance fitness does the source give for FLTKYFNKQPYPTRREIEKLAASLWLWKSDIASHFSQKRKK [N37Q] here?
**A.** -0.141 ± 0.06

**Q.** With FLTKYFNKQPYPTRREIEKLAASLWLWKSDIASHFSLKRKK [N37L] as the variant, how does the abundance fitness read?
**A.** 0.061 ± 0.05

**Q.** For FLTKYFNKQPYPTRREIEKLAASLWLWKSDIASHFSHKRKK [N37H], which abundance fitness is on record?
**A.** -0.072 ± 0.071

**Q.** With FLTKYFNKQPYPTRREIEKLAASLWLWKSDIASHFSAKRKK [N37A] as the variant, how does the abundance fitness read?
**A.** -0.093 ± 0.052

**Q.** With FLTKYFNKQPYPTRREIEKLAASLWLWKSDIASHFSPKRKK [N37P] as the variant, how does the abundance fitness read?
**A.** -0.107 ± 0.059

**Q.** With FLTKYFNKQPYPTRREIEKLAASLWLWKSDIASHFSEKRKK [N37E] as the variant, how does the abundance fitness read?
**A.** -0.142 ± 0.19

**Q.** For FLTKYFNKQPYPTRREIEKLAASLWLWKSDIASHFSRKRKK [N37R], which abundance fitness is on record?
**A.** -0.081 ± 0.08

**Q.** Which abundance fitness does the source give for FLTKYFNKQPYPTRREIEKLAASLWLWKSDIASHFSFKRKK [N37F] here?
**A.** -0.044 ± 0.066

**Q.** Which abundance fitness does the source give for FLTKYFNKQPYPTRREIEKLAASLWLWKSDIASHFSMKRKK [N37M] here?
**A.** 0.013 ± 0.068

**Q.** For FLTKYFNKQPYPTRREIEKLAASLWLWKSDIASHFSSKRKK [N37S], which abundance fitness is on record?
**A.** -0.019 ± 0.049

**Q.** For FLTKYFNKQPYPTRREIEKLAASLWLWKSDIASHFSCKRKK [N37C], which abundance fitness is on record?
**A.** -0.002 ± 0.091

**Q.** For FLTKYFNKQPYPTRREIEKLAASLWLWKSDIASHFSGKRKK [N37G], which abundance fitness is on record?
**A.** 0.022 ± 0.05

**Q.** Which abundance fitness does the source give for FLTKYFNKQPYPTRREIEKLAASLWLWKSDIASHFSIKRKK [N37I] here?
**A.** 0.028 ± 0.099

**Q.** With FLTKYFNKQPYPTRREIEKLAASLWLWKSDIASHFSWKRKK [N37W] as the variant, how does the abundance fitness read?
**A.** 0.023 ± 0.067

**Q.** Which abundance fitness does the source give for FLTKYFNKQPYPTRREIEKLAASLWLWKSDIASHFSKKRKK [N37K] here?
**A.** 0.131 ± 0.11

**Q.** Which abundance fitness does the source give for FLTKYFNKQPYPTRREIEKLAASLWLWKSDIASHFSVKRKK [N37V] here?
**A.** -0.091 ± 0.053

**Q.** For FLTKYFNKQPYPTRREIEKLAASLWLWKSDIASHFSTKRKK [N37T], which abundance fitness is on record?
**A.** -0.077 ± 0.055
